Several values for one entry are separate records, joined by “and”; a condition that tells them apart may be missing. Equal values may be shown once.
T1: rhCD73 bound to his-tag magnet beads (human, UniProt P21589 27-547, limits assumed)
T1 sequence: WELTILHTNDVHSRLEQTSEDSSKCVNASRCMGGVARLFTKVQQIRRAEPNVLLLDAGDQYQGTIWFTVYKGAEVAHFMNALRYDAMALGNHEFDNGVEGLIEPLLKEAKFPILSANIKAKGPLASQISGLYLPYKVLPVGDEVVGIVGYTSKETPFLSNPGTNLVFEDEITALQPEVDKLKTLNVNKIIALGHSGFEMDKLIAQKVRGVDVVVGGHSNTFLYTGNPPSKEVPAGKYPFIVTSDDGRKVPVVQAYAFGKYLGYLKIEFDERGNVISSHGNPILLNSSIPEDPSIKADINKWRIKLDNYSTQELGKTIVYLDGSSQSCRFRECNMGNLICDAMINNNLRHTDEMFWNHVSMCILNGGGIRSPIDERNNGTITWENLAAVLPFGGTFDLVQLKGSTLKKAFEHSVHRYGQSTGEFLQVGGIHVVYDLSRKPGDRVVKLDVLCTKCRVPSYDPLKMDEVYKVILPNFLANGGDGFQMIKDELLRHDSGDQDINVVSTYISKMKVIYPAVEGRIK

T2: human CD73 on cells (human, UniProt P21589 27-549)
T2 sequence: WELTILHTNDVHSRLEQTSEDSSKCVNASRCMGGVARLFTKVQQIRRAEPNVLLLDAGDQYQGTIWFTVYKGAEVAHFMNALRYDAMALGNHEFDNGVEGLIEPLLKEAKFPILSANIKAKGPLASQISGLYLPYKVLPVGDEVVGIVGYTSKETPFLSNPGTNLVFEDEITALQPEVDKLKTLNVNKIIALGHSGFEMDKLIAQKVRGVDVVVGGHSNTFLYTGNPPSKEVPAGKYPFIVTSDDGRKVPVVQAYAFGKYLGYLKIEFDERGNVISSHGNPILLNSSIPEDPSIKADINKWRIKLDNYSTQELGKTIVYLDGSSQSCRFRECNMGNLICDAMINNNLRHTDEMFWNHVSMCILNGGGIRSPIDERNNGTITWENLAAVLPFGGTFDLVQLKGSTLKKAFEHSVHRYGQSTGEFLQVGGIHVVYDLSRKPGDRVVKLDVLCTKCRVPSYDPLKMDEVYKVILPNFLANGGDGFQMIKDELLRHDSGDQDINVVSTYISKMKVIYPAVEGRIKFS

T3: N-hCD73-his (N-terminal domain of human CD73, residues 26-336, His tag) (human, UniProt P21589 26-336)
T3 sequence: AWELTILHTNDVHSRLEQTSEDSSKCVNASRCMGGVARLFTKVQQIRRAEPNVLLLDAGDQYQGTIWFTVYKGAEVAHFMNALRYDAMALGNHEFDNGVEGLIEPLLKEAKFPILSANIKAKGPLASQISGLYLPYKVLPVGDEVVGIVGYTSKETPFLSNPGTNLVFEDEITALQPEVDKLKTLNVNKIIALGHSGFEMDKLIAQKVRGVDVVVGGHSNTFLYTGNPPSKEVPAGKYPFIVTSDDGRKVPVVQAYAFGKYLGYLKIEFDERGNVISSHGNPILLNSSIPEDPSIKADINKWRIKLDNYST

T4: cynomolgus CD73 on transfected CHO cells (cynomolgus, UniProt P21589 27-549 (human entry))
T4 construct: also called CHO-cynoCD73; CHO-Cynomolgus CD73 transfectants
T4 chain: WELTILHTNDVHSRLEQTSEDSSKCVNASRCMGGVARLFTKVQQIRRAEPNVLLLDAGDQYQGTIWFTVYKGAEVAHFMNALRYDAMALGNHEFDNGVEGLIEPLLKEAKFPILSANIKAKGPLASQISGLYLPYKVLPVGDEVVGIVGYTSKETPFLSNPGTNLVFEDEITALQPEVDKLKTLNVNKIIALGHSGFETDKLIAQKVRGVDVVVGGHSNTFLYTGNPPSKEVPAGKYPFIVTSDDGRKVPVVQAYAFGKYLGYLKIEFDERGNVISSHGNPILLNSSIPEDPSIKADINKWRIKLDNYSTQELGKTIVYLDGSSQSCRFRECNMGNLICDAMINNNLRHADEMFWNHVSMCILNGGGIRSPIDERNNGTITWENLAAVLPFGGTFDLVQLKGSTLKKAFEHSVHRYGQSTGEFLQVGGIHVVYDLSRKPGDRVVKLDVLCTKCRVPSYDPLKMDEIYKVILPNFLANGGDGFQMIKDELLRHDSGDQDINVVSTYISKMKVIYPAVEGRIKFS


Columns and labels:
[1] = target: T1, rhCD73 bound to his-tag magnet beads; assay: cell-based or functional assay
[2] = target: T2, human CD73 on cells; assay: cell-based or functional assay
[3] = target: T2, human CD73 on cells; assay: cell-based or functional assay; remark: listed apart in the source
[4] = target: T2, human CD73 on cells; assay: cell-based or functional assay; remark: listed apart in the source
[5] = target: T3, N-hCD73-his (N-terminal domain of human …); assay: SPR, comparison of all IgG2 molecules
Protocol: (§1) For these experiments, protein A (Pierce) was immobilized to a density of 3000-4000 RU on flow cells 1-4 of a CM5 sensor chip (GE Healthcare) using standard ethyl(dimethylaminopropyl) carbodiimide (EDC)/N-hydroxysuccinimide […] chemistry, with ethanolamine blocking, in a running buffer of 0.01 M HEPES pH 7.4, 0.15 M NaCl, 3 mM EDTA, 0.005% v/v tween 20. […] The running buffer for the kinetic experiments was 10 mM sodium phosphate, 130 mM sodium chloride, 0.05% tween 20, pH 7.1. The surfaces were regenerated after each cycle using two 30 s pulses of 10 mM glycine pH 1.5 at a flow rate of 30 μl/min. Sensogram data was double-referenced and then fitted to a 1:1 Langmuir model using Biacore T100 evaluation software v2.0.4, to determine the association rate constant (ka), the dissociation rate constant (kd), and the equilibrium dissociation constant (KD).

[6] = target: T4, cynomolgus CD73 on transfected CHO cells; assay: flow cytometry, CHO-cynoCD73 cells
Protocol: Titration binding curves were produced with CD73 antibodies on Calu6 (CD73 endogenous expressors; human pulmonary adenocarcinoma cell line), DMS114 (CD73 negative; human small cell lung cancer cell line), CHO-cynoCD73 (cynoCD73-transfected) and CHO-K1 (cynoCD73 negative), cells using Alexa Fluor® 647 Goat Anti-Human IgG (H+L) as a secondary antibody, Invitrogen Cat#A-21445, using the following method: 100000 cells were plated in 100 uL PBS+2% FBS per well and blocked for 20 min. Using a U-bottom 96-deep well plate, volumes of antibody and PBS+2% FBS were combined as dictated by Table 12 below.
An 8-point serial dilution was performed by diluting a sixth of the volume (90 uL) into […], PBS+2% FBS. The cell plate was spun down for 5 minutes at 1500 rpm. 100 uL of diluted antibody was added per well of the plate. 100 uL PBS+2% FBS were added to all other wells. […] The plates were spun down at 1500 rpm for 5 min and washed in 200 uL PBS+2% FBS per well. The plates were washed again, resuspended in 200 uL 2% FBS in PBS per well and the samples were run.

[7] = target: T3, N-hCD73-his (N-terminal domain of human …); assay: SPR, mAb captured on protein A
Protocol: as §1

[8] = target: T3, N-hCD73-his (N-terminal domain of human …); assay: SPR
[9] = target: T2, human CD73 on cells; assay: binding titration on Calu6 cells, average of 2-6 experiments

Binder | EC50 (nM), inhibition of bead-bound human CD73 enzymatic activity [1] | Ymax, cAMP HTRF assay (percent of 100 nM 11F11 control) [2] | EC50 (nM), high-content internalization assay, Calu6, 2 h [3] | Ymax, high-content internalization assay (percent of 100 nM 11F11) [3] | EC50 SKMEL24 inhibition [4] | Kd [5] | EC50 [6] | Kd [7] | Kd [8] | EC50 [9] | koff [7] | kon [7]
11F11 (antibody, human IgG2, kappa, V domains shown, Human IgG2; also called 11F11-2) VH: QVQLVESGGGVVQPGRSLRLSCATSGFTFSNYGMHWVRQAPGKGLEWVAVILYDGSNKYYPDSVKGRFTISRDNSKNTLYLQMNSLRAEDTAVYYCARGGSSWYPDSFDIWGQGTMVTVSS VL: DIQMTQSPSSLSASVGDRVTITCRASQGISSWLAWYQQKPEKAPKSLIYAASSLQSGVPSRFSGSGSGTDFTLTISSLQPEDFATYYCQQYNSYPLTFGGGTKVEIKR | 3.98 nM | 76% | 0.58 nM | 98% | 3.15 nM | 1.1 nM | 0.58 nM | 0.56 nM and 1.6 nM | – | – | – | –
4D4 (antibody, human IgG2, kappa, IgG2; also called 4D4-1) heavy: QVQLVESGGGVVQPGRSLRLSCAASGFTFSNYGMHWVRQAPGKGLEWVAVIWYDESNKYYADSVKGRFTISRDNSKNTLFLQMNSLRAEDTAVYYCARGYNSRWYPDAFDIWGQGTMVTVSSASTKGPSVFPLAPCSRSTSESTAALGCLVKDYFPEPVTVSWNSGALTSGVHTFPAVLQSSGLYSLSSVVTVPSSNFGTQTYTCNVDHKPSNTKVDKTVERKCCVECPPCPAPPVAGPSVFLFPPKPKDTLMISRTPEVTCVVVDVSHEDPEVQFNWYVDGVEVHNAKTKPREEQFNSTFRVVSVLTVVHQDWLNGKEYKCKVSNKGLPAPIEKTISKTKGQPREPQVYTLPPSREEMTKNQVSLTCLVKGFYPSDIAVEWESNGQPENNYKTTPPMLDSDGSFFLYSKLTVDKSRWQQGNVFSCSVMHEALHNHYTQKSLSLSPGK light: not shown | 5.31 nM | – | 0.38 nM | 104% | – | – | – | 9.4 nM and 6.2 nM | ~5 nM | 0.82 nM | 0.00077 s⁻¹ and 0.00049 s⁻¹ | 82000 M⁻¹ s⁻¹ and 79000 M⁻¹ s⁻¹
4C3 (antibody, human IgG1, kappa, V domains shown, IgG1za; also called 4C3-1) VH: EVQLVESGGGLVQPGRSLRLSCAASGFTFDDYAMHWVRQAPGKGLEWVSGISWKSGSIGYADSVKGRFTISRDNAKNSLYLQMNSLRAEDTALYYCVKGYYVILTGLDYWGQGTLVTVSS VL: not shown | – | 80% | – | – | – | – | – | – | 100 to 200 nM | – | – | –
CD73.11-IgG2-C219S (antibody, 4D4 variable regions; also called CD73.11-IgG2CS; mAb-CD73.11-Vh-hHC-IgG2-C219S) heavy: QVQLVESGGGVVQPGRSLRLSCAASGFTFSNYGMHWVRQAPGKGLEWVAVIWYDESNKYYADSVKGRFTISRDNSKNTLFLQMNSLRAEDTAVYYCARGYNSRWYPDAFDIWGQGTMVTVSSASTKGPSVFPLAPCSRSTSESTAALGCLVKDYFPEPVTVSWNSGALTSGVHTFPAVLQSSGLYSLSSVVTVPSSNFGTQTYTCNVDHKPSNTKVDKTVERKSCVECPPCPAPPVAGPSVFLFPPKPKDTLMISRTPEVTCVVVDVSHEDPEVQFNWYVDGVEVHNAKTKPREEQFNSTFRVVSVLTVVHQDWLNGKEYKCKVSNKGLPAPIEKTISKTKGQPREPQVYTLPPSREEMTKNQVSLTCLVKGFYPSDIAVEWESNGQPENNYKTTPPMLDSDGSFFLYSKLTVDKSRWQQGNVFSCSVMHEALHNHYTQKSLSLSPG light: not shown | – | – | – | – | – | – | – | 3.5 nM and 6.5 nM | ~5 nM | – | 0.00028 s⁻¹ and 0.00051 s⁻¹ | 80000 M⁻¹ s⁻¹ and 79000 M⁻¹ s⁻¹

— patent US20190284293A1 (Bristol-Myers Squibb, published 2019)
